± gives the uncertainty stated by the source.
Assay: self-splicing fitness, log relative to wild type (ln ratio); higher = more splicing; Tetrahymena group I intron in knt gene, E. coli kanamycin selection, DiMSum; sequences stand for … in CUCUCU…GGAGGGAAAAGUUAUCAGGCAUGCACCUGGUAGCUAGUCUUUAAACCAAUAGAUUGCAUCGGUUUAAAAGGCAAGACCGUCAAAUUGCGGGAAAGGGGUCAACAGCCGUUCAGUACCAAGUCUCAGGGGAAACUUUGAGAUGGCCUUGCAAAGGGUAUGGUAAUAAGCUGACGGACAUGGUCCUAACCACGCAGCCAAGUCCUAAGUCAACAGAUCUUCUGUUGAUAUGGAUGCAGUUCACAGACUAAAUGUCGGUCGGGGAAGAUGUAUUCUUCUCAUAAGAUAUAGUCGGACCUCUCCUUAAUGGGAGCUAGCGGAUGAAGUGAUGCAACACUGGAGCCGCUGGGAACUAAUUUGUAUGCGAAAGUAUAUUGAUUAGUUUUGGAGUACUCGUGGUCG
Summary of the method: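 DiMSum derived fitness as the error-weighted combination of fold changes across replicates, kanamycin versus no kanamycin, normalised to wild type. E. coli BL21(DE3) held the library, which randomised all eight P1ex-region intron nucleotides within the knt kanamycin-resistance gene on pET-22b(+). Six replicate transformations grew overnight at 37°C or 30°C on LB agar with or without 25 μg/mL kanamycin, also containing 100 μg/mL carbenicillin, 50 μM IPTG and 0.2% rhamnose, and pooled colonies were amplicon-sequenced on an Illumina HiSeq 2500.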

Row | Sequence | self-splicing fitness (ln) (30 °C) | self-splicing fitness (ln) (37 °C)
1 | GAGGAGCAAUAUUACGUCCA | -1.23 ± 0.12 | -0.83 ± 0.16
2 | GAGGAGCAAUAUUACGUCCG | -2.52 ± 0.24 | -2.24 ± 0.31
3 | GAGGAGCAAUAUUACGUGGA | -3.86 ± 0.32 | -2.98 ± 0.29
4 | GAGGAGCAAUAUUACGUUAG | -4 ± 0.27 | -1.93 ± 0.27
5 | GAGGAGCAAUAUUACGUUUA | -1.89 ± 0.26 | -1.84 ± 0.32
6 | GAGUAGCAAUAUUACGAACA |  | -1.28 ± 0.34
7 | GAGUAGCAAUAUUACGAGAG | -3.63 ± 0.24 | -3.64 ± 0.27
8 | GAGUAGCAAUAUUACGAUCG | -1.06 ± 0.11 | -0.986 ± 0.12
9 | GAGUAGCAAUAUUACGAUGC | -1.79 ± 0.23 | -0.495 ± 0.26
10 | GAGUAGCAAUAUUACGCAAC | -3.77 ± 0.37 | -2.66 ± 0.36
11 | GAGUAGCAAUAUUACGCAGC |  | -2.81 ± 0.34
12 | GAGUAGCAAUAUUACGCGCU |  | -0.5 ± 0.39
13 | GAGUAGCAAUAUUACGCGUC | -1.36 ± 0.21 | -1.26 ± 0.22
14 | GAGUAGCAAUAUUACGCUUU | -3.16 ± 0.32 | -1.39 ± 0.23
15 | GAGUAGCAAUAUUACGGAAC | -3.8 ± 0.34 | -1.79 ± 0.22
16 | GAGUAGCAAUAUUACGGACC | -1.29 ± 0.21 | -0.248 ± 0.22
17 | GAGUAGCAAUAUUACGGCUU | -2.2 ± 0.12 | -1.78 ± 0.15
18 | GAGUAGCAAUAUUACGGGCC | -2.52 ± 0.15 | -1.32 ± 0.13
19 | GAGUAGCAAUAUUACGGUAU | -2.6 ± 0.13 | -2.22 ± 0.2
20 | GAGUAGCAAUAUUACGUACA | -0.962 ± 0.2 | -0.303 ± 0.18

Row | Sequence | self-splicing fitness (ln) (30 °C) | self-splicing fitness (ln) (37 °C)
21 | GAGUAGCAAUAUUACGUCAA | -2.1 ± 0.19 | -1.8 ± 0.23
22 | GAGUAGCAAUAUUACGUUUU | -2.6 ± 0.22 | -2.12 ± 0.24
23 | GAUAAGCAAUAUUACGAAGU | -2.4 ± 0.18 | -1.15 ± 0.23
24 | GAUAAGCAAUAUUACGAAUA | -2.53 ± 0.22 | -1.58 ± 0.3
25 | GAUAAGCAAUAUUACGACGC | 0.303 ± 0.055 | -0.0161 ± 0.063
26 | GAUAAGCAAUAUUACGAGGG | -4.01 ± 0.39 | -2.19 ± 0.24
27 | GAUAAGCAAUAUUACGAUAG | -1.66 ± 0.15 | -1.95 ± 0.2
28 | GAUAAGCAAUAUUACGAUGG | -3.06 ± 0.31 | -0.54 ± 0.21
29 | GAUAAGCAAUAUUACGCACA | -0.364 ± 0.14 | 0.39 ± 0.18
30 | GAUAAGCAAUAUUACGCGAA | -2.31 ± 0.093 | -1.65 ± 0.11
31 | GAUAAGCAAUAUUACGCGAU |  | -2.82 ± 0.26
32 | GAUAAGCAAUAUUACGCGGA | -3.54 ± 0.22 | -0.761 ± 0.12
33 | GAUAAGCAAUAUUACGCUAA | -2.41 ± 0.24 | -2.28 ± 0.32
34 | GAUAAGCAAUAUUACGCUCG | -0.655 ± 0.15 | 0.0364 ± 0.17
35 | GAUAAGCAAUAUUACGGAGA | -3.48 ± 0.36 | -2.78 ± 0.24
36 | GAUAAGCAAUAUUACGGCGG | -2.27 ± 0.12 | -1.32 ± 0.13
37 | GAUAAGCAAUAUUACGGCUG | -0.569 ± 0.067 | 0.0614 ± 0.1
38 | GAUAAGCAAUAUUACGGUGG | -2.85 ± 0.23 | -2.24 ± 0.2
39 | GAUAAGCAAUAUUACGGUUU | -1.22 ± 0.056 | -0.908 ± 0.069
